Test results reported in paper PMC6208443, “Arabidopsis AGDP1 links H3K9me2 to DNA methylation in heterochromatin” (Nature Communications, 2018).

Columns and labels:
[1] = molecular target: RsAGDP1 AGD12 (residues 26–180) (Raphanus sativus); assay: ITC; Microcal PEAQ-ITC, 25 °C; protein at 0.1 mM, peptide at 1.0–1.5 mM in the same buffer; fit with Origin 7.0
[2] = molecular target: full-length AtAGDP1 (Arabidopsis thaliana) (UniProt Q500V5); assay: as above
Sequence of full-length AtAGDP1 (Arabidopsis thaliana) (Q500V5 whole entry): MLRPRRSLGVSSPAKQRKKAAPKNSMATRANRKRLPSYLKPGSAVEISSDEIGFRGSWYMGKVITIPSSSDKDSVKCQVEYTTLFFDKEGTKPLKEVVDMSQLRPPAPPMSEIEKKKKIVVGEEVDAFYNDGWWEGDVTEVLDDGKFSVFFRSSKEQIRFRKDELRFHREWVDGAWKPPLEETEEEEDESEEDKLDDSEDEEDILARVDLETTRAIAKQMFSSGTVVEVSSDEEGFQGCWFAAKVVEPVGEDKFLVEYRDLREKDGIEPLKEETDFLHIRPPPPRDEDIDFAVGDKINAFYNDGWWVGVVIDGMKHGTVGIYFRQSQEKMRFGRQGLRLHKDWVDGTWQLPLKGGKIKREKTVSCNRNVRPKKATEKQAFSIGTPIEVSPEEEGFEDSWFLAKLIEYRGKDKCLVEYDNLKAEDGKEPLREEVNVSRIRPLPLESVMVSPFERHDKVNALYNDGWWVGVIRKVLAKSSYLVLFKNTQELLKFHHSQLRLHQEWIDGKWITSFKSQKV

| fold decrease of binding against H3K9me2 [1] [fold] | stoichiometry N [2] | Substance |
| --- | --- | --- |
| 5 |  | H3K4me3K9me2 peptide |
|  | 3 | H3K9me2 peptide (ITC) |
